Measurements published in patent US20080131882A1.
One block for each binder: values may come before it. Primed or numbered codes have the meaning given here. No end group written: not given here. Biotin′ = not defined here

How the values were obtained:
Test in all cases: ELISA, biotinylated peptide on streptavidin plate
RhD305.181E06 = target: RhD305.181E06
RhD162.119G12 = target: RhD162.119G12
RhD202.158E07 = target: RhD202.158E07

signal-to-noise ratio (RhD305.181E06): 10
Binder: CTTLLHFLC (coupled to Biotin at the C-terminus) [PEP305]

signal-to-noise ratio (RhD162.119G12): 10
Binder: CMGYGPRMC-{Biotin′} (cysteine pairing not given here) [PEP162]

signal-to-noise ratio (RhD202.158E07): 10
Binder: CAPRNPYEC-{Biotin′} (cysteine pairing not given here) [PEP202]
